Assay results published in patent US20130310317A1 (Bristol-Myers Squibb, published 2013).

molecular target: T1, recombinant human IGF-IR (human, UniProt P08069 31-932); experiment: direct binding ELISA: plate coated with 10 nM IGF-IR, His-tagged clone detected with His-HRP probe, TMB, OD450
T1 construct: Bought (R&D Systems); also called insulin-like growth factor-I receptor; IGF-1R
Protocol: MaxiSorp™ plates (Nunc International, Rochester, N.Y.) were coated with 10 nM IGF-IR in PBS at 4° C. overnight followed by blocking in PBS-casein buffer (Pierce) for 3 hours at room temperature. Purified fibronectin-based scaffold proteins in casein buffer were bound to each well for 1 hour at room temperature at a concentration of 5 nM. The plate was washed with PBST and 100 μl of a 1:4000 dilution of His-HRP probe (Pierce) was added to each well with incubation for 15 min at room temperature. The wells were washed 5 times with PBST and the bound HRP was detected with TMB detection reagents (BD biosciences) according to the manufacturer's instructions.

Binder	EC50 (read off the curve)	binding result
385F08 (designed binder, FG loop optimized derivative of 338A06) VSDVPRDLEVVAATPTSLLISWSARLKVARYYRITYGETGGNSPVQEFTVPKNVYTATISGLKPGVDYTITVYAVTSLRDYAPISINYRTHHHHHH	~0.9 nM	–
386F01 (designed binder, FG loop optimized derivative of 338A06) VSDVPRDLEVVAATPTSLLISWSARLKVARYYRITYGETGGNSPVQEFTVPKNVYTATISGLKPGVDYTITVYAVTTIRDYRPISINYRTHHHHHH	–	binds
386F11 (designed binder, FG loop optimized derivative of 338A06) VSDVPRDLEVVAATPTSLLISWSARLKVARYYRITYGETGGNSPVQEFTVPKNVYTATISGLKPGVDYTITVYAVTLTRDYKPISINYRTHHHHHH	–	binds
385B04 (designed binder, FG loop optimized derivative of 338A06) VSDVPRDLEVVAATPTSLLISWSARLKVARYYRITYGETGGNSPVQEFTVPKNVYTATISGLKPGVDYTITVYAVTAYRDYQPISINYRTHHHHHH	–	binds
387A03 (designed binder, FG loop optimized derivative of 338A06) VSDVPRDLEVVAATPTSLLISWSARLKVARYYRITYGETGGNSPVQEFTVPKNVYTATISGLKPGVDYTITVYAVTSYRDYWPISINYRTHHHHHH	–	binds
386H05 (designed binder, FG loop optimized derivative of 338A06) VSDVPRDLEVVAATPTSLLISWSARLKVARYYRITYGETGGNSPVQEFTVPKNVYTATISGLKPGVDYTITVYAVTVVRDYRPISINYRTHHHHHH	–	binds
385H06 (designed binder, FG loop optimized derivative of 338A06) VSDVPRDLEVVAATPTSLLISWSARLKVARYYRITYGETGGNSPVQEFTVPKNVYTATISGLKPGVDYTITVYAVTQLRDYSPISINYRTHHHHHH	–	binds
385A09 (designed binder, FG loop optimized derivative of 338A06) VSDVPRDLEVVAATPTSLLISWSARLKVARYYRITYGETGGNSPVQEFTVPKNVYTATISGLKPGVDYTITVYAVTRIRDYGPISINYRTHHHHHH	–	binds

molecular target: T2, IGF-IR-Fc (human, UniProt P08069 31-932); experiment: SPR (BIAcore); IGF-IR-Fc captured on Protein A, clone in solution
T2 construct: range 1-932; Made in house by transient transfection, captured on Protein A on CM5 chips for kinetic analysis; also called human IGF-IR-Fc fusion protein; recombinant, immobilized IGF-IR (BIAcore); not shown: hinge and constant regions of human IgG1
Protocol: One liter E. coli growths of selected optimized clones were prepared and the proteins were purified. Surface plasmon resonance (BIAcore) analysis was performed using recombinant, immobilized IGF-IR and solution-phase clones in order to determine binding kinetics and binding affinities.
(§1) The binding kinetics of fibronectin-based scaffold proteins binding proteins to the target was measured using BIAcore 2000 or 3000 biosensors (Pharmacia Biosensor). A capture assay was developed utilizing an IGF-IR-Fc fusion. A similar reagent had been described by Forbes et al. (Forbes et al. 2002, European J. Biochemistry, 269, 961-968). The extracellular domain of human IGF-IR (aa 1-932) was cloned into a mammalian expression vector containing the hinge and constant regions of human IgG1. Transient transfection of the plasmid produced a fusion protein, IGF-IR-Fc which was subsequently purified by Protein A chromatography and captured on Protein A immobilized on Biasensor CM5 chips by amine coupling. The kinetic analysis involved the capture of IGF-IR-Fc on Protein A followed by injection of the fibronectin-based scaffold protein in solution and regeneration of the Protein A surface by glycine pH 2.0. Sensorgrams were obtained at each concentration and were evaluated using a program Biaevaluation, BIA Evaluation 2.0 (BIAcore), to determine the rate constants kₐ (kₒₙ) and kd (koff) The dissociation constant, KD was calculated from the ratio of rate constants koff/kₒₙ. Typically, a concentration series (2 uM to 0 uM) of purified fibronectin-based scaffold protein was evaluated for binding to protein A captured human IGF-IR-Fc fusion protein.

Binder	Kd	koff	kon
339A01 (designed binder, Optimized derivative of 218C04) VSDVPRDLEVVAATPTSLLISWSTALKVQRYYRITYGETGGNSPVQEFTVPKHSHTATISGLKPGVDYTITVYAVTKMRDYRPISINYRTHHHHHH	0.565 nM	0.00067 s⁻¹	1.2e+06 M⁻¹ s⁻¹
338A05 (designed binder, Optimized derivative of 218C04) VSDVPRDLEVVAATPTSLLISWSDSLKVSRYYRITYGETGGNSPVQEFTVPKQYHTATISGLKPGVDYTITVYAVTPSNIIGRHYGPISINYRTHHHHHH	0.261 nM	0.00033 s⁻¹	1.3e+06 M⁻¹ s⁻¹
354A10 (designed binder, Optimized derivative of 218C04) VSDVPRDLEVVAATPTSLLISWSNRLVVKRYYRITYGETGGNSPVQEFTVPHQMKTATISGLKPGVDYTITVYAVTPGGYSGRNYGPISINYRTHHHHHH	0.158 nM	0.00018 s⁻¹	1.1e+06 M⁻¹ s⁻¹

molecular target: T2, IGF-IR-Fc; experiment: as above; remark: another data set of the same source
Protocol: BIAcore analysis was performed using recombinant, immobilized IGF-IR and solution-phase clones in order to determine binding kinetics and binding affinities.
as §1

Binder	Kd	koff	kon
386F10 (designed binder, FG loop optimized derivative of 338A06) VSDVPRDLEVVAATPTSLLISWSARLKVARYYRITYGETGGNSPVQEFTVPKNVYTATISGLKPGVDYTITVYAVTLLRDYGPISINYRTHHHHHH	0.123 nM	0.00023 s⁻¹	1.9e+06 M⁻¹ s⁻¹
386A03 (designed binder, FG loop optimized derivative of 338A06) VSDVPRDLEVVAATPTSLLISWSARLKVARYYRITYGETGGNSPVQEFTVPKNVYTATISGLKPGVDYTITVYAVTNLRDYGPISINYRTHHHHHH	0.088 nM	0.00046 s⁻¹	5.2e+06 M⁻¹ s⁻¹

molecular target: T3, recombinant human insulin receptor (human, UniProt P06213-2 28-944, limits assumed); experiment: SPR (BIAcore); IR amine-coupled to chip, clone at 10 µM, signal as % of insulin signal
T3 construct: Amine-coupled to a CM5 chip (8300 RU); also called IR
Protocol: One liter E. coli growths of selected optimized clones were prepared and the proteins were purified.
In brief, 60 ug/mL of IR diluted in acetate 4.5 was coupled/immobilized to a level of 8300 RU and 11.9 ug/mL of VEGF-R2-Fc diluted in acetate 5.0 was immobilized to a level of 9700 RU on flow cells 2 and 3. A blank reference surface was prepared on FC 1. […] Fibronectin-based scaffold proteins were diluted to 10 uM in HBS-EP (10 mM Hepes 150 mM NaCl 3 mM EDTA 0.05% Surfactant P20) and injected at 20 uL/min for 3 minutes over the flow cells at 25 C and dissociation was observed over 10 mins.

Binder	% IR Binding at 10 µM
339A01 (designed binder, Optimized derivative of 218C04) VSDVPRDLEVVAATPTSLLISWSTALKVQRYYRITYGETGGNSPVQEFTVPKHSHTATISGLKPGVDYTITVYAVTKMRDYRPISINYRTHHHHHH	> 100%
338A05 (designed binder, Optimized derivative of 218C04) VSDVPRDLEVVAATPTSLLISWSDSLKVSRYYRITYGETGGNSPVQEFTVPKQYHTATISGLKPGVDYTITVYAVTPSNIIGRHYGPISINYRTHHHHHH	45%
354A10 (designed binder, Optimized derivative of 218C04) VSDVPRDLEVVAATPTSLLISWSNRLVVKRYYRITYGETGGNSPVQEFTVPHQMKTATISGLKPGVDYTITVYAVTPGGYSGRNYGPISINYRTHHHHHH	1%

molecular target: T1, recombinant human IGF-IR; experiment: direct binding ELISA on coated IGF-IR

Binder	binding result
387A09 (designed binder, FG loop optimized derivative of 338A06) VSDVPRDLEVVAATPTSLLISWSARLKVARYYRITYGETGGNSPVQEFTVPKNVYTATISGLKPGVDYTITVYAVTMSRDYGPISINYRTHHHHHH	binds
385E01 (designed binder, FG loop optimized derivative of 338A06) VSDVPRDLEVVAATPTSLLISWSARLKVARYYRITYGETGGNSPVQEFTVPKNVYTATISGLKPGVDYTITVYAVTAVRDYRPISINYRTHHHHHH	binds
387C02 (designed binder, FG loop optimized derivative of 338A06) VSDVPRDLEVVAATPTSLLISWSARLKVARYYRITYGETGGNSPVQEFTVPKNVYTATISGLKPGVDYTITVYAVTGVRNYGPISINYRTHHHHHH	binds
386A05 (designed binder, FG loop optimized derivative of 338A06) VSDVPRDLEVVAATPTSLLISWSARLKVARYYRITYGETGGNSPVQEFTVPKNVYTATISGLKPGVDYTITVYAVTERRDYRPISINYRTHHHHHH	binds
385E04 (designed binder, FG loop optimized derivative of 338A06) VSDVPRDLEVVAATPTSLLISWSARLKVARYYRITYGETGGNSPVQEFTVPKNVYTATISGLKPGVDYTITVYAVTELRNYGPISINYRTHHHHHH	binds
385D05 (designed binder, FG loop optimized derivative of 338A06) VSDVPRDLEVVAATPTSLLISWSARLKVARYYRITYGETGGNSPVQEFTVPKNVYTATISGLKPGVDYTITVYAVTRERDYRPISINYRTHHHHHH	binds
386A07 (designed binder, FG loop optimized derivative of 338A06) VSDVPRDLEVVAATPTSLLISWSARLKVARYYRITYGETGGNSPVQEFTVPKNVYTATISGLKPGVDYTITVYAVTLVRNYGPISINYRTHHHHHH	binds

molecular target: T1, recombinant human IGF-IR; experiment: competitive ELISA: plate coated with 30 nM IGF-IR, clone bound first, then 10 nM biotinylated IGF-I as the blocked ligand, streptavidin-HRP/TMB, OD450
Protocol: MaxiSorp™ plates (Nunc International, Rochester, N.Y.) were coated with 30 nM IGF-IR in PBS at 4° C. overnight followed by blocking in OptEIA buffer (BD biosciences, San Diego, Calif.) for 3 hours at room temperature. Purified fibronectin-based scaffold proteins in OptEIA buffer were bound to each well for 1 hour at room temperature at concentrations ranging from 50 pM to 1 μM. […] The excess ligand was removed by washing with PBST and bound ligand was detected with streptavidin-HRP (Pierce, Rockford, Ill.) using TMB detection reagents (BD biosciences) according to the manufacturer's instructions

Binder	IC50 (read off the curve)	binding result
339A01 (designed binder, Optimized derivative of 218C04) VSDVPRDLEVVAATPTSLLISWSTALKVQRYYRITYGETGGNSPVQEFTVPKHSHTATISGLKPGVDYTITVYAVTKMRDYRPISINYRTHHHHHH	~1 nM	–
354F11 (designed binder, Optimized derivative of 218C04) VSDVPRDLEVVAATPTSLLISWGKHLVVQRYYRITYGETGGNSPVQEFTVPRGHYTATISGLKPGVDYTITVYAVTKMRDYRPISINYRTHHHHHH	–	binds
354G09 (designed binder, Optimized derivative of 218C04) VSDVPRDLEVVAATPTSLLISWPQHLRVQRYYRITYGETGGNSPVQEFTVPRGSDTATISGLKPGVDYTITVYAVTKMRDYRPISINYRTHHHHHH	–	binds
354G02 (designed binder, Optimized derivative of 218C04) VSDVPRDLEVVAATPTSLLISWAEHLQVSRYYRITYGETGGNSPVQEFTVPRGVYTATISGLKPGVDYTITVYAVTPSNIIGRHYGPISINYRTHHHHHH	–	binds
354F06 (designed binder, Optimized derivative of 218C04) VSDVPRDLEVVAATPTSLLISWTTNLQVSRYYRITYGETGGNSPVQEFTVPKANTTATISGLKPGVDYTITVYAVTVSKGNRSYGPISINYRTHHHHHH	–	binds
